Source: the supplement of paper PMC9170038

Tested on: MS2 coat protein
Test: apparent KD of MS2 coat protein; designed switch direction (-1 OFF switch, 1 ON switch): -1; higher = weaker reporter binding
Summary of the method: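 For each design, the apparent KD is the median over clusters of curves fitted to normalised cluster fluorescence. Clusters held RNA switches with common flanks, transcribed on Illumina chips by stalled E. coli RNA polymerase. These were titrated with SNAP-549-labelled MS2 coat protein, doubling from 0.7 or 1.5 nM to 3 µM, without input, with 200 uM small-molecule ligand, or with an oligonucleotide input.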

[1] = input ligand: microRNA oligo, concentration not stated
[2] = Eterna round: R95, input ligand: microRNA oligo, concentration not stated
[3] = Eterna round: R95, input ligand: FMN 200 uM
[4] = Eterna round: R95, input ligand: none

CACCUGAACACAGGAUAUCCUACAUGAGGAUCACCCAUGUAAUAAAUGAGAAUUUCGAAUGUAAUGGAGAAGGGUGGAUAAGGC [Ostracism 89 - Jieux - Exclusion NG 2] (Eterna round: R96, puzzle: Exclusion NG 2)
apparent KD of MS2 coat protein (input ligand: FMN 200 uM): 137 nM | apparent KD of MS2 coat protein [1]: 81.2 nM | apparent KD of MS2 coat protein (input ligand: none): 97.2 nM

CACCUGAAUACAGGAUAUCCUACAUGAGGAUCACCCAUGUAAUAAAUGAGAAUUUCGAAUGUAAUGGAGAAGGGUAGAUAAGGC [Ostracism 88 - Jieux - Exclusion NG 2] (Eterna round: R96, puzzle: Exclusion NG 2)
apparent KD of MS2 coat protein (input ligand: FMN 200 uM): 125 nM | apparent KD of MS2 coat protein [1]: 82.8 nM | apparent KD of MS2 coat protein (input ligand: none): 86.6 nM

CACGAGCUAGGAUAUACAUGAGGAUCACCCAUGUAAGUCAUGCGGUCACAUCUGACAGGUAGAAGGAGCGCGUC [Teaertete] (puzzle: Exclusion 3)
apparent KD of MS2 coat protein [2]: 37.5 nM

CACUAACAUGAGGAUCACCCAUGUUAGGAUAUGCAGUUCGGCCAACGGGCCCGAACAUGUAGAAGGAACAGGGU [Eternabot (L2) Solution 44] (Eterna round: R97, puzzle: Exclusion 1)
apparent KD of MS2 coat protein (input ligand: FMN 200 uM): 81.3 nM | apparent KD of MS2 coat protein (input ligand: none): 25.8 nM

CACUUACAUGAGGAUCACCCAUGUGAGGAUAUCGUGACCUGACGAGAAGUCAAUGUCACGAGAAGGUACAUGGG [Exclusion 1 (Mod 1 solution 97 by Eternabot)] (Eterna round: R97, puzzle: Exclusion 1)
apparent KD of MS2 coat protein (input ligand: FMN 200 uM): 59.3 nM | apparent KD of MS2 coat protein (input ligand: none): 68.2 nM

CAGAAACAUGAGGAUCACCCAUGUGAGGAUAUGAAAAAGAAAAGAAAAGAAAGAAGAAUCAGAAGGCACAAAGU [salish99-ex1_r3_086] (puzzle: Exclusion 1)
apparent KD of MS2 coat protein [3]: 36.8 nM | apparent KD of MS2 coat protein [2]: 32.4 nM | apparent KD of MS2 coat protein [4]: 35.7 nM

CAGACACAUGAGGAUCACCCAUGUGAGGAUAUGCGUACGUUGUCCGUAGGCGACGUGCGCAGAAGGCGCAUAGG [JL-ex1-3.11 Eli mod] (puzzle: Exclusion 1)
apparent KD of MS2 coat protein [3]: 51.7 nM | apparent KD of MS2 coat protein [2]: 74.3 nM | apparent KD of MS2 coat protein [4]: 50.1 nM

CAGACGGCCGUAGGAUAUGCAGCAAAGACGUGAGCAGAAGGACGAUACAUGAGGAUCACCCAUGUACGUGGGUAGUGCGCAUGC [Veustean] (Eterna round: R96, puzzle: Exclusion NG 1)
apparent KD of MS2 coat protein (input ligand: FMN 200 uM): 19.8 nM | apparent KD of MS2 coat protein [1]: 14.4 nM | apparent KD of MS2 coat protein (input ligand: none): 20.8 nM

CAGCUGAAAGUGAGGAUAUCUAGAGCCUCGGCUCUAGAGAAGGCACAUGAGGAUCACCCAUGUGAUCACAGCUG [BmEx4/7-A2] (Eterna round: R97, puzzle: Brourd's mod of Exclusion 4)
apparent KD of MS2 coat protein (input ligand: FMN 200 uM): 1320 nM | apparent KD of MS2 coat protein (input ligand: none): 307 nM

CAGGACAGAGGAUAUACAUAGAUACAGAUUCAUGUAGAACUACAUGAGGAUCACCCAUGUAGAAGGCUGUCCUG [Fiskers Ex 2 - 3] (Eterna round: R96, puzzle: Exclusion 2)
apparent KD of MS2 coat protein (input ligand: FMN 200 uM): 370 nM | apparent KD of MS2 coat protein [1]: 25 nM | apparent KD of MS2 coat protein (input ligand: none): 33.5 nM

CAGGACAGAGGAUAUACAUAGAUACAGAUUCAUGUAGAACUACAUGAGGAUCACCCAUGUAGAAGGCUGUCCUG [Fiskers Ex 2 - 3] (puzzle: Exclusion 2)
apparent KD of MS2 coat protein [2]: 27.8 nM

CAGUACUACAAGCUAUGGGACAUGAGGAUCACCCAUGUUCGUCUUAUUGAUCUAGGUACGCUGACGUACCUAGAUCU [JL-sv1-2.19 Brourd mod] (puzzle: Sensor v3, turn-off variant 1)
apparent KD of MS2 coat protein [3]: 16.9 nM | apparent KD of MS2 coat protein [2]: 27.8 nM | apparent KD of MS2 coat protein [4]: 15.9 nM

CAGUACUACAAGCUUGGGAACAUGAGGAUCACCCAUGUUCGUCUUAUUGAUCUAGGUACGCUGACGUACCUAGAUCU [JL-sv1-2.17 Brourd mod] (puzzle: Sensor v3, turn-off variant 1)
apparent KD of MS2 coat protein [3]: 16.5 nM | apparent KD of MS2 coat protein [2]: 27.1 nM | apparent KD of MS2 coat protein [4]: 14.7 nM

CAGUACUGAGGAUAUACAUGAGGAUCACCCAUGUCUUCCAGCUAGGAUACUAGCAAAUGUAGAAGGCAGUACUG [Mat - Exclusion 3 - Eli Mod - D9] (Eterna round: R97, puzzle: Exclusion 3)
apparent KD of MS2 coat protein (input ligand: FMN 200 uM): 428 nM | apparent KD of MS2 coat protein (input ligand: none): 68.1 nM

CAGUACUGAGGAUAUACAUGAGGAUCACCCAUGUGAAAUGCAUAGGAAACUAUGCUAUGUAGAAGGCAGUACUG [Eli x3 4.03] (Eterna round: R97, puzzle: Exclusion 3)
apparent KD of MS2 coat protein (input ligand: FMN 200 uM): 108 nM | apparent KD of MS2 coat protein (input ligand: none): 18.5 nM

CAGUACUGAGGAUAUACAUGAGGAUCACCCAUGUGCUCUAGCUAGGAUACUAGCAUUAGUAGAAGGCAGUACUG [Fiskers Ex 3 828 mod 8] (Eterna round: R96, puzzle: Exclusion 3)
apparent KD of MS2 coat protein (input ligand: FMN 200 uM): 132 nM | apparent KD of MS2 coat protein [1]: 14.4 nM | apparent KD of MS2 coat protein (input ligand: none): 19.7 nM

CAGUACUGAGGAUAUACAUGAGGAUCACCCAUGUGCUCUAGCUAGGAUACUAGCAUUAGUAGAAGGCAGUACUG [Fiskers Ex 3 828 mod 8] (puzzle: Exclusion 3)
apparent KD of MS2 coat protein [2]: 15.2 nM

CAGUACUGAGGAUAUACAUGAGGAUCACCCAUGUGUUCCAGCUAGGAAACUAGCUAAAGUAGAAGGCAGUACUG [salish99_ex3_r3_092x] (Eterna round: R96, puzzle: Exclusion 3)
apparent KD of MS2 coat protein [1]: 17.7 nM

CAGUACUGAGGAUAUACAUGAGGAUCACCCAUGUGUUCCAGCUAGGAAACUAGCUAAAGUAGAAGGCAGUACUG [salish99_ex3_r3_092x] (puzzle: Exclusion 3)
apparent KD of MS2 coat protein [3]: 459 nM | apparent KD of MS2 coat protein [2]: 24.1 nM | apparent KD of MS2 coat protein [4]: 25 nM

CAGUACUGAGGAUAUACAUGAGGAUCACCCAUGUGUUCCAGCUAGGAUACUAGCAAAGGAAGAAGGCAGUACUG [Mat - Exclusion 3 - Eli Mod - D2] (Eterna round: R97, puzzle: Exclusion 3)
apparent KD of MS2 coat protein (input ligand: FMN 200 uM): 19.4 nM | apparent KD of MS2 coat protein (input ligand: none): 18.9 nM

CAGUCAGCGCAGGAUAUCUGCUCGGUGACAGACGGAGAAGGGUGCACAUGAGGAUCACCCAUGUGAAUCUCUAA [Eternabot (Original) Solution 3] (Eterna round: R97, puzzle: Exclusion 6)
apparent KD of MS2 coat protein (input ligand: FMN 200 uM): 21.4 nM | apparent KD of MS2 coat protein (input ligand: none): 28.5 nM

CAGUCGAUAAGAUCAAUUAAUUAACAUGAGGAUCACCCAUGUGAGGAUAUCAGCUCGUGUAGAGCUGAGAAGGCACAACGACUG [ExNG3/17-A3] (Eterna round: R96, puzzle: Exclusion NG 3)
apparent KD of MS2 coat protein (input ligand: FMN 200 uM): 278 nM | apparent KD of MS2 coat protein [1]: 51.7 nM | apparent KD of MS2 coat protein (input ligand: none): 60.2 nM

CAGUCGAUAAGAUCAAUUAAUUAACAUGAGGAUCACCCAUGUGAGGAUAUCAGCUCGUUUAGAGCUGAGAAGGCACAACGACUG [ExNG3/17-A2] (Eterna round: R96, puzzle: Exclusion NG 3)
apparent KD of MS2 coat protein (input ligand: FMN 200 uM): 305 nM | apparent KD of MS2 coat protein [1]: 32.4 nM | apparent KD of MS2 coat protein (input ligand: none): 37.9 nM

CAGUUCUGACGGAGAUCCAACAUGAGGAUCACCCAUGUCUCAAAAGCUUUUUGCUCGUCUUAUCCUCCUCAGGACUC [Mat - Sensor, turn-off var - Eli Mod - D58] (Eterna round: R97, puzzle: Sensor, turn-off variant 1)
apparent KD of MS2 coat protein (input ligand: FMN 200 uM): 16.4 nM | apparent KD of MS2 coat protein (input ligand: none): 16.4 nM

CAUACGGCAGGAUAUGCGUGGCCAUCUUAGCUCUACCUAAGACAUGAGGAUCACCCAUGUAGAAGGGUUACAUA [Eternabot (Original) Solution 41] (Eterna round: R97, puzzle: Exclusion 2)
apparent KD of MS2 coat protein (input ligand: FMN 200 uM): 20.5 nM | apparent KD of MS2 coat protein (input ligand: none): 19.8 nM

CAUAGUAAUUAGGAUAUCUGCCGGCUGAGCCGAGGAGAAGGGAUUACAUGAGGAUCACCCAUGUGGUCCUAGAA [Lebireti] (puzzle: Exclusion 6)
apparent KD of MS2 coat protein [3]: 31.3 nM | apparent KD of MS2 coat protein [2]: 20.1 nM | apparent KD of MS2 coat protein [4]: 19.9 nM

CAUAUGUGAGGAUAUGACAAUGGUAUCUUCGGAUACCAUUGUCAGAAGGCACAUGAGGAUCACCCAUGUGGAUC [Exclusion 4 - Mod Brourd Ex 4-3: 20 v.5] (puzzle: Exclusion 4)
apparent KD of MS2 coat protein [2]: 151 nM

CAUAUUGUAGGAUAUAUUCGAAAGGUCCUCUUCCCAUACCGACAUGAGGAUCACCCAUGUAGAAGGAUAGUGCC [Eternabot (L2) Solution 13] (Eterna round: R97, puzzle: Exclusion 2)
apparent KD of MS2 coat protein (input ligand: FMN 200 uM): 48.9 nM | apparent KD of MS2 coat protein (input ligand: none): 53.6 nM

CAUCCGGCAGGAUAUACAUGAGGAUCACCCAUGUCAGAAAGCAAAUUGUGCGACUCAGGUAGAAGGGUUGGACU [Ederusat] (puzzle: Exclusion 3)
apparent KD of MS2 coat protein [2]: 21.1 nM

CAUCUCGUAGGAUAUUCACAAAAGCACAUGAGGAUCACCCAUGUUAUCCGACAUGAUGCCGAAGAAGGACGAAAAC [Di] (puzzle: Exclusion 5)
apparent KD of MS2 coat protein [3]: 107 nM | apparent KD of MS2 coat protein [2]: 79.8 nM | apparent KD of MS2 coat protein [4]: 78.9 nM

CAUGAUCUUCGGAUCAUGUACAUGAGGAUCACCCAUGUUACGAGUUGAUUUUCAUACAAGCUUUUUGCUCGUCUUAU [Sensor v3 - Turn-off variant 1 - 27] (puzzle: Sensor v3, turn-off variant 1)
apparent KD of MS2 coat protein [3]: 226 nM | apparent KD of MS2 coat protein [2]: 330 nM | apparent KD of MS2 coat protein [4]: 240 nM

CAUGAUUGGCGAGGAUAUUGAUCUACAUGGCGACGAGAAGGCGCCUGUCACAUGAGGAUCACCCAUGUGAGUCUGGUGAAUGAG [Ex NG1 #85] (Eterna round: R96, puzzle: Exclusion NG 1)
apparent KD of MS2 coat protein (input ligand: FMN 200 uM): 67.2 nM | apparent KD of MS2 coat protein [1]: 25 nM | apparent KD of MS2 coat protein (input ligand: none): 42.6 nM

CAUGAUUGGGAAGGAUAUUGACCUAGUUAGCGCCGAGAAGGUCCCUGUCACAUGAGGAUCACCCAUGUGAAUCUGGUGUUCGAG [Ex NG1 #94] (Eterna round: R96, puzzle: Exclusion NG 1)
apparent KD of MS2 coat protein (input ligand: FMN 200 uM): 36.7 nM | apparent KD of MS2 coat protein [1]: 17.9 nM | apparent KD of MS2 coat protein (input ligand: none): 19.7 nM
